Measured values taken from patent publication US20240034757A1 (OXFORD UNIVERSITY INNOVATION, published 2024).
Like-named read-outs stand apart in the source and are kept apart here.

Legend:
CCL16_HUMAN = target: T1, CCL16_HUMAN (human, UniProt O15467 24-120); experiment: BLI;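 note: biolayer interferometry on an Octet system: chemokines at several doses tested against tick chemokine-binding proteins, association, equilibrium and dissociation curves fitted to derive Kd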
T1 sequence: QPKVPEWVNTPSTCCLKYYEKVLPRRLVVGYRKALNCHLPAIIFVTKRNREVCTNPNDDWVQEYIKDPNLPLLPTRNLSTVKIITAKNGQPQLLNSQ

CCL18_HUMAN = target: T2, CCL18_HUMAN (human, UniProt P55774 21-89); experiment: yeast surface display FACS
T2 sequence: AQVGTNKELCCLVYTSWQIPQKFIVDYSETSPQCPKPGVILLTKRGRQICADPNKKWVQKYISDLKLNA

CXCL12_HUMAN = CXCL12_HUMAN (human, UniProt P48061 22-89); experiment: yeast surface display FACS
CCL5_HUMAN [1] = target: T3, CCL5_HUMAN (human, UniProt P13501 24-91); experiment: yeast surface display FACS
T3 sequence: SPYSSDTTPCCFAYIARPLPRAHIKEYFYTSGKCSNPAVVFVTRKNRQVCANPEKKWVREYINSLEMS

CCL11_HUMAN = CCL11_HUMAN (human, UniProt P51671 24-97); experiment: yeast surface display FACS
CCL17_HUMAN = target: T4, CCL17_HUMAN (human, UniProt Q92583 24-94); experiment: yeast surface display FACS
T4 sequence: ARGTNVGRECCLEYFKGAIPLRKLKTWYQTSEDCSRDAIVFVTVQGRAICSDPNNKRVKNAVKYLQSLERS

CCL20_HUMAN = CCL20_HUMAN (human, UniProt P78556 27-96); experiment: yeast surface display FACS
CCL5_HUMAN [2] = target: T3, CCL5_HUMAN; experiment: yeast surface display FACS; remark: listed apart in the source
CXCL8_HUMAN = target: T5, CXCL8_HUMAN (human, UniProt P10145 28-99); experiment: yeast surface display FACS
T5 sequence: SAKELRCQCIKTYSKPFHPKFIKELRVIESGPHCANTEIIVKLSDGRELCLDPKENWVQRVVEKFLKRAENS

P1096_IXORI [3] = target: T6, P1096_IXORI (Ixodes ricinus, UniProt A0A0K8RKE4 24-114); experiment: BLI [Cont.]
T6 sequence: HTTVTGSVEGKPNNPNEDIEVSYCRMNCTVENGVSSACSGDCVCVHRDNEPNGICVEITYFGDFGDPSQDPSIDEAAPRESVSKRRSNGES

P1174_IXORI = target: T7, P1174_IXORI (Ixodes ricinus, UniProt V5I3C5 28-104); experiment: BLI [Cont.]
T7 sequence: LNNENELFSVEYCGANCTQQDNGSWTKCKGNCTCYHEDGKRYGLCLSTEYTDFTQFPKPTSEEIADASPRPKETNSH

P1229_IXORI = target: T8, P1229_IXORI (Ixodes ricinus, UniProt A0A0K8R4R9 32-108); experiment: BLI [Cont.]
T8 sequence: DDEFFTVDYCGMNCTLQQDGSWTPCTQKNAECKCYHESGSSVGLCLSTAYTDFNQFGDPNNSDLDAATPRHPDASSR

P1095_IXORI [4] = target: T9, P1095_IXORI (Ixodes ricinus, UniProt A0A0K8RCE3 24-112); experiment: BLI [Cont.]
T9 sequence: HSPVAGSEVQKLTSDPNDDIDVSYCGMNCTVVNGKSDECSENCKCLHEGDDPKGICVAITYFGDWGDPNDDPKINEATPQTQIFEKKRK

P1128_IXORI = target: T10, P1128_IXORI (Ixodes ricinus, UniProt A0A0K8R6B3 19-90); experiment: BLI [Cont.]
T10 sequence: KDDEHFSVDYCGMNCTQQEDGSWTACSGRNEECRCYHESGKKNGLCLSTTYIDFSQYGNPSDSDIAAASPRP

P1172_IXORI = target: T11, P1172_IXORI (Ixodes ricinus, UniProt V5I2G9 24-94); experiment: BLI [Cont.]
T11 sequence: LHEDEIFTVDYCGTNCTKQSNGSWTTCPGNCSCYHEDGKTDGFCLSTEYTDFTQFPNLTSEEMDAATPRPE

P1080_IXORI [5] = target: T12, P1080_IXORI (Ixodes ricinus, UniProt A0A090XBL6 20-118); experiment: BLI [Cont.]
P1127_IXORI [6] = target: T13, P1127_IXORI (Ixodes ricinus, UniProt A0A0K8RJ67 29-108); experiment: BLI [Cont.]
T13 sequence: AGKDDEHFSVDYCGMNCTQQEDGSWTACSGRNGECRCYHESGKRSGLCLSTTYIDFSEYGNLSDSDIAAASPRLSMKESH

P1132_IXORI [7] = target: T14, P1132_IXORI (Ixodes ricinus, UniProt V5GZ08 29-106); experiment: BLI [Cont.]
T14 sequence: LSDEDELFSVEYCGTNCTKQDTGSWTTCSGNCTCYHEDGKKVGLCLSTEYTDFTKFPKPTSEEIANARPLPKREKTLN

P1162_IXORI = target: T15, P1162_IXORI (Ixodes ricinus, UniProt A0A0K8RDJ1 29-99); experiment: BLI [Cont.]
T15 sequence: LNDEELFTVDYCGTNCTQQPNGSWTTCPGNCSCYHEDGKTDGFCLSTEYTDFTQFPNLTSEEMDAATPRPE

P1168_IXORI [8] = target: T16, P1168_IXORI (Ixodes ricinus, UniProt A0A0K8RCU3 25-106); experiment: BLI [Cont.]
T16 sequence: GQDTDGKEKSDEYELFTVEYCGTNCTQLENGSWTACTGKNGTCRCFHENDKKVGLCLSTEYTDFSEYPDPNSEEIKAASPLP

P1170_IXORI = target: T17, P1170_IXORI (Ixodes ricinus, UniProt A0A0K8RD51 29-102); experiment: BLI [Cont.]
T17 sequence: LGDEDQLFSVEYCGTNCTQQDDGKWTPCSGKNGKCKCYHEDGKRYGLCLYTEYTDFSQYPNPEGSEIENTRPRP

P1134_IXORI [9] = target: T18, P1134_IXORI (Ixodes ricinus, UniProt A0A0K8RAI0 32-135); experiment: BLI [Cont.]
T18 sequence: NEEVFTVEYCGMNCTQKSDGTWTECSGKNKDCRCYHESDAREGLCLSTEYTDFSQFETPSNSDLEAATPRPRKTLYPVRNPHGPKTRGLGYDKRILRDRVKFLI

P1166_IXORI [10] = target: T19, P1166_IXORI (Ixodes ricinus, UniProt A0A0K8RE99 25-110); experiment: BLI [Cont.]
T19 sequence: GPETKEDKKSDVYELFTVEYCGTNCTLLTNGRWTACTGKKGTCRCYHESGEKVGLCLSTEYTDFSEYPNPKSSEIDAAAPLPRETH

P1156_IXORI [11] = target: T20, P1156_IXORI (Ixodes ricinus, UniProt V5HBW0 29-108); experiment: BLI [Cont.) C]
T20 sequence: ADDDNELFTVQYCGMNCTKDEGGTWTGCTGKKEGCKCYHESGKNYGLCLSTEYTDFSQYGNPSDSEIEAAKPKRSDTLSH

P1096_IXORI [12] = target: T6, P1096_IXORI; experiment: BLI
P1095_IXORI [13] = target: T9, P1095_IXORI; experiment: BLI
P1156_IXORI [14] = target: T20, P1156_IXORI; experiment: BLI
P1080_IXORI [15] = target: T12, P1080_IXORI; experiment: BLI
P1127_IXORI [16] = target: T13, P1127_IXORI; experiment: BLI
P1132_IXORI [17] = target: T14, P1132_IXORI; experiment: BLI
P1168_IXORI [18] = target: T16, P1168_IXORI; experiment: BLI
P1134_IXORI [19] = target: T18, P1134_IXORI; experiment: BLI
P1166_IXORI [20] = target: T19, P1166_IXORI; experiment: BLI

Sequence of CCL20_HUMAN (P78556 27-96 limits assumed): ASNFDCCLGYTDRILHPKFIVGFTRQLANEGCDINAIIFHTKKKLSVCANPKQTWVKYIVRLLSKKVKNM
T12 sequence (A0A090XBL6 20-118): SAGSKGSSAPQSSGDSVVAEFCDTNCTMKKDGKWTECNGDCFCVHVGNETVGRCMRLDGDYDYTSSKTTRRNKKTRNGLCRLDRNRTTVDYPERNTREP
Sequence of CCL11_HUMAN (P51671 24-97 limits assumed): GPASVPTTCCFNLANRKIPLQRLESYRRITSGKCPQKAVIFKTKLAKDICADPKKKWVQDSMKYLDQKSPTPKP
Sequence of CXCL12_HUMAN (P48061 22-89 limits assumed): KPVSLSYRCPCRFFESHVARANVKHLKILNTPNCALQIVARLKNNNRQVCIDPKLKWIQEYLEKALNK

B1: P974_AMBCA (other)
chain: ENTQQEEQDYDYGTDTCPFPVLANKTNKAKFVGCHQKCNGGDQKLTDGTACYVVERKVWDRMTPMLWYECPLGECKNGVCEDLRKKEDCRKGNGEEK
11 nM: Kd (CCL16_HUMAN)

B2: P546_AMBCA (other)
chain: ENTQQEEEDYDYGTDTCPFPVLANKTNKAKFVGCHQKCNGGDQKLTDGTACYVVERKVWDRMTPMLWYSCPLGECKNGVCEDLRKKEECRKGNGEEK
6.7 nM: Kd (CCL16_HUMAN)

B3: P1215_AMBPA (other)
chain: KTDTKNAAGELPPKVVIPGCEDPATTKAPLPDEPPYYGITIDKDGCQRKVLGSSQRQQRKVQNGRKLDGKKRGRRPVFVDLELTVDCKRKCNGTYSQLPDGENCLVSDGYPYGRWGTIKGGCYQGNCSSGQCHRGEKKVNCYLPKNITNDVPKSLNLAE
binds: binding result (CCL18_HUMAN) | binding result (CXCL12_HUMAN) | binding result (CCL5_HUMAN [1]) | binding result (CCL11_HUMAN)

B4: P993_AMBPA (other)
chain: HRHYDPNEPCLIAGLKTPRDALPAGCRYDCMIKKNQKLRDGLLCLDVPEKVVKRMVNYLNYSCPLGTCRKGICKRKHRNVRCQKYPVFYMSPPK
binds: binding result (CCL17_HUMAN) | binding result (CCL20_HUMAN) | binding result (CCL5_HUMAN [2])

B5: P1252_AMBAM (other)
chain: RGGAASVPANASIPGCGDAQTTPAAPEDQPKHYVVYRDGNGCEVKIIGTWMTTEDYNCLPDTFRKNRAPHGKVKLPASCKKTCGNAVQNLKDGTPCRKVFGDLGRRRNLIKNGCLVGACQSGLCVSGNRTISCYIPPNSTDTRATPGSFAE
binds: binding result (CCL17_HUMAN) | binding result (CCL20_HUMAN) | binding result (CXCL8_HUMAN)

B6: P1015_AMBCA (other)
chain: EEAPGPAPGCGEPEPTPPKPRRHGIVTNVNSCNSTILVWNGKEFPALCKVRCPHKSYRVSDFEPCLKFTNRRFLQERKDETPYKCKLGFCRHGTCITSEHSRKVPCKVPADRLDPSE
binds: binding result (CCL20_HUMAN) | binding result (CXCL8_HUMAN)

B7: CXCL7_HUMAN (ligand)
chain: AELRCMCIKTTSGIHPKNIQSLEVIGKGTHCNQVEVIATLKDGRKICLDPDAPRIKKIVQKKLAGDESAD
no binding (tested: 300 nM): binding result (P1096_IXORI [3]) | binding result (P1174_IXORI) | binding result (P1229_IXORI) | binding result (P1095_IXORI [4]) | binding result (P1128_IXORI) | binding result (P1172_IXORI) | binding result (P1080_IXORI [5]) | binding result (P1127_IXORI [6]) | binding result (P1132_IXORI [7]) | binding result (P1162_IXORI) | binding result (P1168_IXORI [8]) | binding result (P1170_IXORI) | binding result (P1134_IXORI [9]) | binding result (P1166_IXORI [10]) | binding result (P1156_IXORI [11])

B8: CXCL14_HUMAN (ligand)
chain: SKCKCSRKGPKIRYSDVKKLEMKPKYPHCEEKMVIITTKSVSRYRGQEHCLHPKLQSTKRFIKWYNAWNEKRRVYEE
no binding (tested: 300 nM): binding result (P1096_IXORI [12]) | binding result (P1095_IXORI [13]) | binding result (P1156_IXORI [14]) | binding result (P1080_IXORI [15]) | binding result (P1127_IXORI [16]) | binding result (P1132_IXORI [17]) | binding result (P1168_IXORI [18]) | binding result (P1134_IXORI [19]) | binding result (P1166_IXORI [20])
